± gives the standard deviation.
Assay: protein stability index of a GFP-peptide fusion (GPS, HEK-293T) (PSI 1-6); higher = more stable
[1] = treatment: DMSO, c terminus: a fixed tail appended
[2] = treatment: MLN4924 1 uM, 8 h, c terminus: a fixed tail appended
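Further: 24-mer peptide tiles fused after GFP, lentivirally expressed, FACS-sorted into six equal bins by GFP/DsRed ratio, decoded by Illumina sequencing, PSI is the read-weighted mean bin number.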

| Sequence | protein stability index [1] | protein stability index [2] | protein stability index (treatment: DMSO, c terminus: native) | protein stability index (treatment: MLN4924 1 uM, 8 h, c terminus: native) |
| --- | --- | --- | --- | --- |
| PVCYQCLEEGKHSSHEVKALGAMW [TRIM9] | 2.64 ± 0.35 | 2.76 ± 0.32 |  |  |
| PVLLLQITVGLVFLCLQYRLRGKL [MOG] | 3.23 ± 0.36 | 3.17 ± 0.25 |  |  |
| PVTICCGHSFCRPCLCLSWEEAQS [TRIM43] | 2.61 ± 0.35 | 2.95 ± 0.36 |  |  |
| QAEIENKRRQLEDERRQLQHLKSK [PALM] | 5.02 ± 0.17 | 4.97 ± 0.36 |  |  |
| QAFRAIDRADYYLEEFKENAYKDL [PCMTD2] | 3.34 ± 0.15 | 3.17 ± 0.23 |  |  |
| QAFRAIDRGDYYLEGYRDNAYKDL [PCMTD1] | 2.85 ± 0.19 | 2.98 ± 0.53 |  |  |
| QARYHDTPYKPPAGRAAAPELSYR [MYORG] | 3.69 ± 0.15 | 3.85 ± 0.13 |  |  |
| QATLPVGSPSRPLSRRQLCPLTPG [C2CD2L] | 3.61 ± 0.33 | 3.74 ± 0.14 |  |  |
| QCQEAEQARAELTAQHQRRLAAIA [FBF1] | 4.34 ± 0.05 | 4.28 ± 0.15 |  |  |
| QDGVLDLSTKKSPCAGSTSLSHSP [LCOR] | 4.95 ± 0.14 | 4.96 ± 0.2 |  |  |
| QDKPYKCTDCGKSFNHNAHLTVHK [ZNF8] | 3.71 ± 0.27 | 3.72 ± 0.41 |  |  |
| QDQPSEAATGGATLAQTISEAAIG [HDAC6] | 5.09 ± 0.23 | 5.35 ± 0.15 |  |  |
| QDSKEMKQLLDSKIGFEIGIENEE [ZNF449] | 5.35 ± 0.37 | 5.37 ± 0.47 |  |  |
| QENESLFTFLGKKCVTMSSAVVQL [WASL] | 2.29 ± 0.34 | 2.32 ± 0.039 |  |  |
| QEPQSPQKLNPGFDLAKGNAGKVN [PLAGL1] | 5 ± 0.2 | 4.89 ± 0.39 |  |  |
| QESKNQVHRRGEYNVYSTFQSHEP [PPP2R2B] | 3.72 ± 0.38 | 4.2 ± 0.22 |  |  |
| QFQEALEELAKKRFKDKSSEEAVR [TPPP] | 3.49 ± 0.38 | 3.64 ± 0.39 |  |  |
| QFTMGGPAISMASPMSIPTNTMHY [CARM1] | 2.54 ± 0.21 | 2.68 ± 0.18 |  |  |
| QGPMSQRRENYGVPPRRATISSWR [RBMY1A1] | 3.68 ± 0.22 | 3.57 ± 0.36 |  |  |
| QGSLSNTYLSKVDPDGKKIKQIQQ [FBXO33] | 4.28 ± 0.31 | 4.34 ± 0.18 |  |  |
| QIFANTVDNARIVLQIDNARLAAD [KRT18] | 2.78 ± 0.28 | 2.75 ± 0.33 |  |  |
| QKAVKSCLVCQASFCELHLKPHLE [TRIM29] | 3.86 ± 0.19 | 3.86 ± 0.25 |  |  |
| QKRSRAIHSSDEGEDQAGDEDEDD [WAS] | 5.69 ± 0.21 | 5.57 ± 0.24 |  |  |

| Sequence | protein stability index [1] | protein stability index [2] | protein stability index (treatment: DMSO, c terminus: native) | protein stability index (treatment: MLN4924 1 uM, 8 h, c terminus: native) |
| --- | --- | --- | --- | --- |
| QLAHMVKEQEETIQRIDENVLGAQ [STX5] | 4.81 ± 0.45 | 4.96 ± 0.21 |  |  |
| QLTNTSGTVIGVTSCIVIILIIIS [NETO1] | 2.43 ± 0.27 | 2.43 ± 0.28 |  |  |
| QLWSNVTPLTFTKVSEGQADIMIS [MMP1] | 2.58 ± 0.24 | 2.66 ± 0.43 |  |  |
| QNCLWTLRNLSDAATKQEGMEGLL [CTNNB1] | 3.23 ± 0.28 | 3.04 ± 0.18 |  |  |
| QNLQEEKERKLECLPPEPSPDDPE [FAF2] | 5.44 ± 0.37 | 5.46 ± 0.46 |  |  |
| QNRYLDGMVRAHGVRVSVPCPSTT [BET1L] | 3.02 ± 0.37 | 3.21 ± 0.44 |  |  |
| QNTHLTRHQRTHTGEKPYQCNICG [ZNF263] | 4.01 ± 0.27 | 4.19 ± 0.32 |  |  |
| QPMCEEHEEERINIYCLNCEVPTC [TRIM55] | 4.43 ± 0.2 | 4.31 ± 0.22 |  |  |
| QPWMVIEGIRQTEYTLTGLKFDMK [FSD1] | 2.29 ± 0.35 | 2.52 ± 0.49 |  |  |
| QQDDSDEYDDDDSAASTSFQPQPV [ZNF207] | 5.4 ± 0.18 | 5.37 ± 0.18 |  |  |
| QQERNDTNFHGVCMFCNEEFLGNR [ZNF277] | 2.96 ± 0.34 | 2.99 ± 0.6 |  |  |
| QQYQSQAKQLFRKLNEQSPTRCTL [SEC22B] | 3.46 ± 0.073 | 3.44 ± 0.27 |  |  |
| QRAKCKDPQLEIAYRGNCKDVSRC [SMOC2] | 3.85 ± 0.21 | 4 ± 0.14 |  |  |
| QRIKSQERETEATRGRGGLLRDHI [MOG] | 4.59 ± 0.18 | 4.78 ± 0.11 |  |  |
| QSGCLYRLRALGERHTMDLTVEGF [TMEM120A] | 2.12 ± 0.55 | 2.27 ± 0.2 |  |  |
| QSHPHLVAEAFRALASAQCPQFGI [SPOPL] | 2.35 ± 0.4 | 2.16 ± 0.023 |  |  |
| QSLEGDTTKGTSEMSEKRGPTSSN [MLH1] | 5.54 ± 0.18 | 5.43 ± 0.28 |  |  |
| QTGDLLSTFHTISPSFQLKAAALP [PLAGL1] | 2.6 ± 0.22 | 2.67 ± 0.22 |  |  |
| QTLKAMVQAWPFTCLPLGVLMKGQ [PRAME] | 2.65 ± 0.85 | 3.03 ± 0.38 |  |  |
| QTQVKIWFQNKRSKFKKLMKQGGA [DLX1] | 2.36 ± 0.32 | 2.1 ± 0.42 |  |  |
| QTWKLFSSHMNIDITDDCICDLAR [PPEF2] | 2.25 ± 0.35 | 2.06 ± 0.32 |  |  |
| QVHDDDLLSSSEEECKDRERPMYG [EMD] | 5.49 ± 0.22 | 5.41 ± 0.13 |  |  |
| QVQSLITNVESQLAEIRSDLERQN [KRT33B] | 3.85 ± 0.22 | 3.91 ± 0.1 |  |  |

| Sequence | protein stability index [1] | protein stability index [2] | protein stability index (treatment: DMSO, c terminus: native) | protein stability index (treatment: MLN4924 1 uM, 8 h, c terminus: native) |
| --- | --- | --- | --- | --- |
| QVRSAAVQLIWVVSQLYPESIVPI [INTS4] | 3.29 ± 0.32 | 2.9 ± 0.32 |  |  |
| QYALELLTVYAWERGSMKTHFNTA [OAS1] | 3 ± 0.24 | 2.86 ± 0.43 |  |  |
| QYHHSKIRNRGYNLIYRSTRHLKR [TMEM192] | 3.07 ± 0.25 | 2.98 ± 0.091 |  |  |
| QYLMASDMAGKIKLWDLRTTKCVR [DCAF4] | 2.26 ± 0.11 | 2.43 ± 0.26 |  |  |
| RAASENSQDALRVVSTSGEQMKVY [IKZF1] | 4.26 ± 0.57 | 4.78 ± 0.29 |  |  |
| RAPEVLLQSTYATPVDMWSVGCIF [CDK4] | 2.7 ± 0.28 | 2.35 ± 0.34 |  |  |
| RAPRSPGQVTPRGLRLRLPRRESL [C6orf223] | 4.19 ± 0.35 | 4.41 ± 0.25 |  |  |
| RARVKEKFSPEAFTEQLYRYVTKL [ALG2] | 2.36 ± 0.48 | 2.05 ± 0.46 |  |  |
| RCLHASQWPVCAACPVRKFWSVG [BRF1] |  |  | 2.4 ± 0.14 | 2.17 ± 0.34 |
| RDSYGGPPRREPLPSRRDVYLSPR [RBMX] | 3.69 ± 0.36 | 3.97 ± 0.2 |  |  |
| RDVYLPAGKWRSYKGELFDKTPVL [MYORG] | 2.32 ± 0.3 | 2.51 ± 0.18 |  |  |
| REEMKLKECVSILPRKESPSVRSS [TNFSF13B] | 4.61 ± 0.14 | 4.73 ± 0.2 |  |  |
| RENSSDSPKELKRRNSSSSMSSRL [DLC1] | 5.13 ± 0.23 | 5.05 ± 0.3 |  |  |
| RESRGSTRGKRESESRGSSGRVKR [USP39] | 5.14 ± 0.32 | 5.24 ± 0.33 |  |  |
| REVFNEIYPVWTYSYLVLLFPVFL [SLC19A2] | 2.71 ± 0.61 | 2.62 ± 0.21 |  |  |
| RFNQVLKNLLHAEFLRVQEERILH [VPS39] | 2.47 ± 0.81 | 2.46 ± 0.38 |  |  |
| RFPLQEENSVTHHEVKCQGKPLAG [KMT5A] | 4.69 ± 0.27 | 4.55 ± 0.38 |  |  |
| RFRFGQDQLLLATGLNNGRIKIWD [WSB1] | 2.25 ± 0.33 | 2.5 ± 0.32 |  |  |
| RFYYQALSVAPQIGMPFNQLGTLA [SMG5] | 2.63 ± 0.6 | 2.55 ± 0.61 |  |  |
| RGCSVKIWTAHYDPGHCFAESREL [ALG2] | 2.21 ± 0.26 | 2.11 ± 0.52 |  |  |
| RGGGDPWTNGSGLALCQRYYHRGH [MCOLN1] | 3.08 ± 0.23 | 3.2 ± 0.28 |  |  |
| RGNTYALQTGPLLGRPDSLELQRQ [RSPH3] | 3.87 ± 0.15 | 3.9 ± 0.26 |  |  |
| RGSIQSRYISMSVWTSPRRLVELA [PRAME] | 2.52 ± 0.24 | 2.71 ± 0.3 |  |  |

| Sequence | protein stability index [1] | protein stability index [2] | protein stability index (treatment: DMSO, c terminus: native) | protein stability index (treatment: MLN4924 1 uM, 8 h, c terminus: native) |
| --- | --- | --- | --- | --- |
| RGTPPRRHSFRKHLYLLRGLPGSG [N4BP2L1] | 2.64 ± 0.3 | 2.94 ± 0.21 |  |  |
| RGYIKPHVDSIKFCGATIAGLSLL [ALKBH7] | 2.52 ± 0.41 | 2.39 ± 0.63 |  |  |
| RHFFTSWASCLQYDFDTQYAFVGD [WDFY1] | 2.37 ± 0.28 | 2.39 ± 0.17 |  |  |
| RICLGKFTFPGMSLDKRQGEGLRI [TPRG1] | 2.12 ± 0.19 | 2.08 ± 0.32 |  |  |
| RIHTGERPYMCKECGKAFSQNSSL [ZNF8] | 2.84 ± 0.39 | 3.2 ± 0.74 |  |  |
| RILQEKLDQPVSAPPSPRDISMEI [CCDC6] | 3.68 ± 0.33 | 3.87 ± 0.25 |  |  |
| RKDVCKSTHHGCEHICVNNGNSYI [MATN2] | 3.01 ± 0.32 | 3.07 ± 0.23 |  |  |
| RKYFADLAMNYKHGDPIPKVEFTE [TPH1] | 3.31 ± 0.32 | 3.3 ± 0.24 |  |  |
| RLRDAGFRVTLWVHPFVNYNSSRF [MYORG] | 2.61 ± 0.61 | 2.44 ± 0.15 |  |  |
| RLSKEWEDSKRWSKMDQLAKELTA [CHGA] | 3.18 ± 0.34 | 3.41 ± 0.66 |  |  |
| RLVVEFPATGGAIPSWQIRTVKLI [PKD2L1] | 2.62 ± 0.53 | 2.16 ± 0.36 |  |  |
| RMDKRTLALLVLAHSSDVLENVFS [GOLPH3L] | 2.37 ± 0.53 | 2.22 ± 0.23 |  |  |
| RMRLFGQRCQKCSWSQYEMPEFSS [RTP4] | 2.42 ± 0.52 | 2.2 ± 0.23 |  |  |
| RMVPALPPKRMLGADREFIEARRR [SNX8] | 3.96 ± 0.29 | 4.17 ± 0.18 |  |  |
| RMYPFQIHSIALSTFASLIGPFGG [CDS2] | 2.79 ± 0.33 | 2.61 ± 0.5 |  |  |
| RPHEVLLCSDLVKAYQRCVSAAHK [CHCHD6] | 2.64 ± 0.11 | 2.75 ± 0.61 |  |  |
| RPSSPRPQKASPNGSISSAGNSSR [BTBD10] | 4.97 ± 0.21 | 4.94 ± 0.3 |  |  |
| RPWRAGVLAEGDNASRSLYPDAED [PSD2] | 5.16 ± 0.2 | 5.05 ± 0.16 |  |  |
| RQKGTGKEYAAKFIKKRRLSSSRR [DAPK3] | 4.2 ± 0.24 | 4.5 ± 0.29 |  |  |
| RQKIWNNMPKDHPVSCCLGLLLES [DYNC2LI1] | 2.25 ± 0.23 | 2.34 ± 0.28 |  |  |

From the supplement of paper PMC10567573
